The target of data set [1] is T1, Tsal1 (Glossina morsitans morsitans, UniProt D3TS87 23-399).
T1 sequence: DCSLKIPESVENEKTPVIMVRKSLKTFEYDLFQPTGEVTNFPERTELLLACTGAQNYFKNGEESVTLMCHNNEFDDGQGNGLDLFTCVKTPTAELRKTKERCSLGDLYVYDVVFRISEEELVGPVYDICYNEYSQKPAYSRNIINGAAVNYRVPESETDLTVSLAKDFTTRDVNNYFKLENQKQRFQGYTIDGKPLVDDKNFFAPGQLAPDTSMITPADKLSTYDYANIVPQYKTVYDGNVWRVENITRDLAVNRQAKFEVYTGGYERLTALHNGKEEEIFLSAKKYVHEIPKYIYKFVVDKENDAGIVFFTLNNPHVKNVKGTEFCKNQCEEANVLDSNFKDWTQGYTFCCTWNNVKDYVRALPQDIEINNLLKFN
The experiment in a line: SPR. The settings on record: SPR (BIAcore), 50 mM sodium acetate pH 4.0, 150 mM NaCl, 3.5 mM EDTA, 0.005% Tween-20, 30 ul/min, Langmuir 1:1 fit; temperature not stated. On the technique in general: In SPR one partner is held on a chip, and binding of the other changes the refractive index at the surface.

Data set [2] deals with T1, Tsal1. Nature of the data set: SPR; text: 1.03 nM; ka 1.0E+06, kd 1.0E-03; SPR (BIAcore), 50 mM sodium acetate pH 4.0, 150 mM NaCl, 3.5 mM EDTA, 0.005% Tween-20, 30 ul/min, Langmuir 1:1 fit; temperature not stated. The conditions noted are these: protein: recombinant; tags: pelB leader (pET22b), His tag implied by Ni-NTA; blunt.

Broadly, the Kd is the constant that tells how readily two partners part at equilibrium. In the case of dsRNA 121 bp, the Kd with Tsal1 [1] is 2.8 nM.

Take dsDNA 161 bp: the Kd in the data set with Tsal1 [1] came to 0.45 nM.

B1: dsDNA 25bp polyA/T (dsDNA)
DNA 1: AAAAAAAAAAAAAAAAAAAAAAAAA
DNA 2: TTTTTTTTTTTTTTTTTTTTTTTTT
B1: the Kd in the data set with Tsal1 [2] was found to be 1 nM.

For the origin of these results see article PMC3479092, “Tsetse Salivary Gland Proteins 1 and 2 Are High Affinity Nucleic Acid Binding Proteins with Residual Nuclease Activity”.
